Target: Proprotein Convertase Subtilisin/Kexin type 9 (PCSK9), human plasma (human (endogenous in plasma)) (UniProt Q8NBP7)
Chain of UniProt Q8NBP7 (Q8NBP7 153-692): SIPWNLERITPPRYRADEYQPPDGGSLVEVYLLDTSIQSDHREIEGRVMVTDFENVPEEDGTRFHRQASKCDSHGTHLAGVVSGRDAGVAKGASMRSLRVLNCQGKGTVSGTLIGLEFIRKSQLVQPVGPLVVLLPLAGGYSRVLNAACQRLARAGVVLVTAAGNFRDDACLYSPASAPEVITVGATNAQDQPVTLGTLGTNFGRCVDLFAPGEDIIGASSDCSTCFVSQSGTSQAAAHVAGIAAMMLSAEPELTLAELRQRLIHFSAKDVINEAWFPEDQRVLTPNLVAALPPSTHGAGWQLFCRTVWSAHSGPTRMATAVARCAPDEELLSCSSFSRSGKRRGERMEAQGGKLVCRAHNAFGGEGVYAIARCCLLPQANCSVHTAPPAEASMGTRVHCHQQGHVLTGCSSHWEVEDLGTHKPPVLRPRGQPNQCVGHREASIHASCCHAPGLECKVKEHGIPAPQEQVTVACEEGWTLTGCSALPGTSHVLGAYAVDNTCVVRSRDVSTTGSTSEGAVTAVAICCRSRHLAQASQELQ

Substance: apolipoprotein B-100 (apoB-100) of human plasma LDL and Lp(a) (from UniProt P04114 28-4563) (natural protein)
- percent of plasma PCSK9 associated with apoB: 37%

Reference: publication PMC4920709
